Measured values taken from IntAct's records for PubMed 25036637.

B1: BAG family molecular chaperone regulator 4 (Homo sapiens), O95429 (parent)
chain: MSALRRSGYGPSDGPSYGRYYGPGGGDVPVHPPPPLYPLRPEPPQPPISWRVRGGGPAETTWLGEGGGGDGYYPSGGAWPEPGRAGGSHQEQPPYPSYNSNYWNSTARSRAPYPSTYPVRPELQGQSLNSYTNGAYGPTYPPGPGANTASYSGAYYAPGYTQTSYSTEVPSTYRSSGNSPTPVSRWIYPQQDCQTEAPPLRGQVPGYPPSQNPGMTLPHYPYGDGNRSVPQSGPTVRPQEDAWASPGAYGMGGRYPWPSSAPSAPPGNLYMTESTSPWPSSGSPQSPPSPPVQQPKDSSYPYSQSDQSMNRHNFPCSVHQYESSGTVNNDDSDLLDSQVQYSAEPQLYGNATSDHPNNQDQSSSLPEECVPSDESTPPSIKKIIHVLEKVQYLEQEVEEFVGKKTDKAYWLLEEMLTKELLELDSVETGGQDSVRQARKEAVCKIQAILEKLEKKGL
partner: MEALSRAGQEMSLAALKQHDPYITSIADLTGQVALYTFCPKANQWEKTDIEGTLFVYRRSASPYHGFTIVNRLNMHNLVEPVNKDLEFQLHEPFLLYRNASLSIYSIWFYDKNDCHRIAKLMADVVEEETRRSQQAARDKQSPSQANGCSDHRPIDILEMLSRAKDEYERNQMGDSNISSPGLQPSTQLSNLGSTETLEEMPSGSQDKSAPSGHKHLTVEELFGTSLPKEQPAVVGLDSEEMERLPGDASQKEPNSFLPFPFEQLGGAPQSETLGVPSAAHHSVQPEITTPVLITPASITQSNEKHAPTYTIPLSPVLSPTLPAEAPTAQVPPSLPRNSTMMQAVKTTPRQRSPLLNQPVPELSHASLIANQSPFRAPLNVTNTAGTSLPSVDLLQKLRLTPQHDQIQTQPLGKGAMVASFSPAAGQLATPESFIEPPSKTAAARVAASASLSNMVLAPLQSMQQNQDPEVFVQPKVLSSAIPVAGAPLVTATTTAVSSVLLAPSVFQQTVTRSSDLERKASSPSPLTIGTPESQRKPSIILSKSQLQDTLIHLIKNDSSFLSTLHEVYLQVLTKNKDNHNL

Variants of: B1
Conditions: with dcp1a_human DCP1A

effect of a mutation on the interaction | Variant
disrupting interaction | D424A
